In the experiment the target is gga1_human GGA1 (UniProt Q9UJY5).
gga1_human GGA1, sequence (Q9UJY5 whole entry): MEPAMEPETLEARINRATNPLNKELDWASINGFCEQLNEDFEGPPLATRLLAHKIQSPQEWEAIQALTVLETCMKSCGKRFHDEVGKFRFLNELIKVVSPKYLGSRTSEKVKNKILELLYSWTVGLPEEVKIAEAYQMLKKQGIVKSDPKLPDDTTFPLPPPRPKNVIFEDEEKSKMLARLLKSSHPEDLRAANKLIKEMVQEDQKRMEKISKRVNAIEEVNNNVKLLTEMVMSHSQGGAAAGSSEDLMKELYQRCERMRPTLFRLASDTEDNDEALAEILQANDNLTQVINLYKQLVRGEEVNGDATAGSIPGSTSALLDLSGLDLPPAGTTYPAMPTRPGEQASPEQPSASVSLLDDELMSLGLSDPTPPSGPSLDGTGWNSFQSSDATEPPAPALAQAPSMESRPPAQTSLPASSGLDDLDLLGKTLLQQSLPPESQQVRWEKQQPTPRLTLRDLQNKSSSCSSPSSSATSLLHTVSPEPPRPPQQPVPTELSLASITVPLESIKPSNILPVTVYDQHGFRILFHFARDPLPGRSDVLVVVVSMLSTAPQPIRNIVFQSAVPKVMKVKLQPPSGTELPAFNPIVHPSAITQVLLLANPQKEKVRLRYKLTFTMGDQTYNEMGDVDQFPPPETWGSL

For “ADP-ribosylation factor 1 (Homo sapiens), P84077 T32N”, the “effect of a mutation on the interaction” value is “decreasing interaction”.

For the origin of these results see IntAct's records for PubMed 15143060.
